Reference: article doi:10.1101/2020.06.24.169185 (bioRxiv, 2020)

B1: GFP-Nanog (natural protein, UniProt Q80Z64 1-305, looked up)
chain: MSVGLPGPHSLPSSEEASNSGNASSMPAVFHPENYSCLQGSATEMLCTEAASPRPSSEDLPLQGSPDSSTSPKQKLSSPEADKGPEEEENKVLARKQKMRTVFSQAQLCALKDRFQKQKYLSLQQMQELSSILNLSYKQVKTWFQNQRMKCKRWQKNQWLKTSNGLIQKGSAPVEYPSIHCSYPQGYLVNASGSLSMWGSQTWTNPTWSSQTWTNPTWNNQTWTNPTWSSQAWTAQSWNGQPWNAAPLHNFGEDFLQPYVQLQQNFSASDLEVNLEATRESHAHFSTPQALELFLNYSVTPPGEI
B2: mCherry-Nanog (natural protein, UniProt Q80Z64 1-305, looked up)
chain: B1 chain
B3: GFP-Sox2 (natural protein)
chain: not shown

How the values were obtained:
mCherry-Nanog = molecular target: B2; assay: fluorescence cross-correlation spectroscopy
[1] = molecular target: the molecule itself; assay: fluorescence correlation spectroscopy
[2] = molecular target: the molecule itself; assay: fluorescence correlation spectroscopy; remark: listed apart in the source
[3] = molecular target: the molecule itself; assay: fluorescence correlation spectroscopy; remark: listed apart in the source

In the case of B1, the complex % (mCherry-Nanog) is reported as 19.8%, the GFP-Nanog/GFP brightness ratio [1] is reported as roughly 1.5 and the “stoichiometry N” value [2] is reported as 2.

B2 was tested, and the mCherry-Nanog/mCherry brightness ratio [3] was roughly 2.

B3 showed a complex % (mCherry-Nanog) of 26.1%.
